Common to all, as to details: remark: other sources report otherwise
Assay [1] concerns the target T1, Fas with the death domain, CFP and YFP fusions (human), P25445.
T1 chain: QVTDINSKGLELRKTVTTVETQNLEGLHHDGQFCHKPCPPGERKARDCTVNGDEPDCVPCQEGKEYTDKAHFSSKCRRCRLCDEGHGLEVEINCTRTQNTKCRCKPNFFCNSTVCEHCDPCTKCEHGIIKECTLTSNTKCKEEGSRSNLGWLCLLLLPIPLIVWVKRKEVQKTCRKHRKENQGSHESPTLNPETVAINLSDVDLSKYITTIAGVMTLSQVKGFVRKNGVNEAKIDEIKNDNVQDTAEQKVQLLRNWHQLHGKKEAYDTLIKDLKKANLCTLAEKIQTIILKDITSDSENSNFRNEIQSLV
Kind of assay: CFP dequenching after YFP photobleaching, fluorescence microscope.

Assay [2] has as its target T2, Fas (endogenous, native receptor on T lymphoma cells), P25445.
T2 chain: T1 chain
Nature of the assay: DTSSP crosslinking of H9 lymphoma cells, anti-Fas Western blot of deglycosylated lysates. In general terms: A western blot detects proteins with antibodies after separation by electrophoresis.

For assay [3], the target named is T3, p60 TNFR (endogenous), P19438.
T3 chain: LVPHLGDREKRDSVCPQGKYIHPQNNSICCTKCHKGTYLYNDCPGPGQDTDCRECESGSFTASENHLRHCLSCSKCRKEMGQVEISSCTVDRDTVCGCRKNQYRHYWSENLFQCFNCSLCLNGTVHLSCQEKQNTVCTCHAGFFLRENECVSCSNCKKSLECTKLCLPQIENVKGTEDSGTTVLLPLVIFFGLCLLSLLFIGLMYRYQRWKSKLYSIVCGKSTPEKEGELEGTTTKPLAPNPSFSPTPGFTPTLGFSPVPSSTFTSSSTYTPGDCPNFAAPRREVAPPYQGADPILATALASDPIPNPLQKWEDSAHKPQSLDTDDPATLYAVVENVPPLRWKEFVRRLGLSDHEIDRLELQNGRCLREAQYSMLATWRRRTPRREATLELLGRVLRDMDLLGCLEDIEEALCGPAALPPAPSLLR
Kind of assay: DTSSP crosslinking of H9 cells with or without TNFα, non-reducing Western blot.

3 molecules from patent US20030108992A1 can be followed below.

B1: Fas with the death domain, CFP and YFP fusions, P25445 26-335 (receptor, human, UniProt P25445 26-335, looked up, not shown: large carriers)
chain: T1 chain
B1 showed an FRET efficiency in assay [1] of 27%.

B2: Fas (endogenous, native receptor on T lymphoma cells), P25445 26-335 (receptor, UniProt P25445 26-335, looked up)
chain: T1 chain
In assay [2], B2 displayed a percent of chains cross-linked as trimers (densitometry) of 60%.

B3: p60 TNFR (endogenous), P19438 30-455 (receptor, UniProt P19438 30-455, looked up)
chain: T3 chain
With B3, the percent of chains cross-linked as apparent trimers and higher order complexes in assay [3] lay within 15 to 20%.
